Results reported in PMC5988928, “An alkaline and surfactant-tolerant lipase from Trichoderma lentiforme ACCC30425 with high application potential in the detergent industry” (AMB Express, 2018).

What was measured:
Test in all cases: purified protein
Type in all cases: biochemical, Trichoderma sp.
Conditions in all cases: pH 9.5, 50 °C, 10 min, Tris-HCl
purified protein [1] = substrate: CCCC(=O)Oc1ccc([N+](=O)[O-])cc1
purified protein [2] = substrate: CCCCCCCC(=O)Oc1ccc([N+](=O)[O-])cc1
purified protein [3] = substrate: CCCCCCCCCC(=O)Oc1ccc([N+](=O)[O-])cc1
purified protein [4] = substrate: CCCCCCCCCCCC(=O)Oc1ccc([N+](=O)[O-])cc1
purified protein [5] = substrate: CCCCCCCCCCCCCC(=O)Oc1ccc([N+](=O)[O-])cc1
purified protein [6] = substrate: CCCCCCCCCCCCCCCC(=O)Oc1ccc([N+](=O)[O-])cc1

B1: TlLipA (Trichoderma sp.) (protein)
chain: AQGQVNVTIPSGNIMGSSVEDVEFFKGIPFADPPIGELRFKPPQTLSTHLGDFDATKKAKLCSQGPVFTVSSNPQVAPFALKAERESFGNPVPPENESEDCLTVTIHRPAGTEAGDDLPVLFYIFGGGFVIGGTSAAINDPTVLVQTGIDLGKPFIFAAVNYRVGGWGFMPGAEILRDGSANAGLLDQRKGLEWVADNIAAFGGDPSKVTIWGQSSGSISVFEQLVLYDGDNTYNGNPLFRGAIMNSGSVTPVDPVDSAKPQALYDHVVRVANCEGDDSLDCLRRLPNDHFAAAANSIPGLISYESLALSYLPRPDGEVLTASPHVLAREGKFPAVPMILASQEDEGTLFSFFQGDMGTTDIITDYLNSLYFTNTDRSLVKSFVETYSERLEDGSPYRTGDSKDLFYYPGKKRIASILGDIVFTLVRRWTLETIAEVSPETALWSSFASYNYKPLDIFGLGTKHGSDTEVFFARNNSDFPSITGRTYYINFVYNGDPNEGLDVNVTWLGWKEDRQLLWYNATENGYLADNFRNGSYNFIKEHIDSLIF
notes: secreted from Pichia pastoris GS115 (pPIC9, alpha-factor signal), no tag told; N-terminus AQGQVNVTIP from primer
Km (purified protein [1]): 400 ± 70 µM
Vmax (purified protein [1]): 12.2 µmol/min/mg
kcat (purified protein [1]): 12.2 ± 0.8 s⁻¹
kcat/Km (purified protein [1]): 30700 M⁻¹ s⁻¹
Km (purified protein [2]): 670 ± 230 µM
Vmax (purified protein [2]): 27.3 µmol/min/mg
kcat (purified protein [2]): 27.4 ± 4.4 s⁻¹
kcat/Km (purified protein [2]): 41000 M⁻¹ s⁻¹
Km (purified protein [3]): 350 ± 70 µM
Vmax (purified protein [3]): 12.5 µmol/min/mg
kcat (purified protein [3]): 12.5 ± 0.7 s⁻¹
kcat/Km (purified protein [3]): 35800 M⁻¹ s⁻¹
Km (purified protein [4]): 1590 ± 420 µM
Vmax (purified protein [4]): 16.8 µmol/min/mg
kcat (purified protein [4]): 16.8 ± 2.4 s⁻¹
kcat/Km (purified protein [4]): 10600 M⁻¹ s⁻¹
Km (purified protein [5]): 3290 ± 1210 µM
Vmax (purified protein [5]): 4.3 µmol/min/mg
kcat (purified protein [5]): 4.3 ± 1 s⁻¹
kcat/Km (purified protein [5]): 1320 M⁻¹ s⁻¹
Km (purified protein [6]): 4220 ± 1280 µM
Vmax (purified protein [6]): 4.8 µmol/min/mg
kcat (purified protein [6]): 4.8 ± 1 s⁻¹
kcat/Km (purified protein [6]): 1140 M⁻¹ s⁻¹
